Fold increase of co-precipitated V5-Apobec3A data for 1 substance are collected here from article PMC10294656.

This assay has as its target human apolipoprotein-B mRNA-editing catalytic polypetide-like 3A protein (human) (UniProt P31941). In words: co-IP; HepaRG cells cotransfected with pLenti6.3-Apobec3A-V5 and pEYFP-Apobec3A, mock-infected or infected with HAdV wt (50 ffu/cell), harvested 24 and 48 hpi; whole-cell lysates; YFP-Apobec3A held on ChromoTek GFP-Trap agarose beads, V5-Apobec3A detected by Western blot; V5 signal normalised to input and β-actin.

Sequence of human apolipoprotein-B mRNA-editing catalytic polypetide-like 3A protein, P31941 1-199 (enzyme; other documents disagree on this pair) (P31941 whole entry): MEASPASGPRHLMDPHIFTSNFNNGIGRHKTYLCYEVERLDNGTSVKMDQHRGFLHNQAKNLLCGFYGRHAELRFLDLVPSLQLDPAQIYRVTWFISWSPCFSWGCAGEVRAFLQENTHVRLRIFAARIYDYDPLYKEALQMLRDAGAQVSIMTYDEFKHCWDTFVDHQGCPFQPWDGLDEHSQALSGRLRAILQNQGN

The substance “human apolipoprotein-B mRNA-editing catalytic polypetide-like 3A protein, P31941 1-199 (enzyme; other documents disagree on this pair)” returned a fold increase of co-precipitated V5-Apobec3A at 48 h after HAdV infection against mock of 10 fold.
